Results as given in publication PMC6763431, “Methionine in a protein hydrophobic core drives tight interactions required for assembly of spider silk” (Nature Communications, 2019).

B1: wild-type N-terminal domain of major ampullate spidroin 1 (MaSp1) from Euprosthenops australis [Euprosthenops australis] / itself (parent)
chain: SHTTPWTNPGLAENFMNSFMQGLSSMPGFTASQLDDMSTIAQSMVQSIQSLAAQGRTSPNKLQALNMAFASSMAEIAASEEGGGSLSTKTSSIASAMSNAFLQTTGVVNQPFINEITQLVSMFAQAGMNDVSA

Variants of: B1
Test: high-resolution SEC
Details: with itself; read off a plot

Row | Kd [nM] | Variant
1 | 660 | SHTTPWTNPGLAENFLNSFLQGLSSMPGFTASQLDDLSTIAQSLVQSIQSLAAQGRTSPNKLQALNMAFASSMAEIAASEEGGGSLSTKTSSIASAMSNAFLQTTGVVNQPFINEITQLVSMFAQAGMNDVSA [chain 1 M16L M20L M37L M44L]
2 | 750 | SHTTPWTNPGLAENFLNSFLQGLSSMPGFTASQLDDLSTIAQSMVQSIQSLAAQGRTSPNKLQALNMAFASSMAEIAASEEGGGSLSTKTSSIASAMSNAFLQTTGVVNQPFINEITQLVSMFAQAGMNDVSA [chain 1 M16L M20L M37L]
3 | 1000 | SHTTPWTNPGLAENFLNSFLQGLSSMPGFTASQLDDLSTIAQSLVQSIQSLAAQGRTSPNKLQALNMAFASSLAEIAASEEGGGSLSTKTSSIASAMSNAFLQTTGVVNQPFINEITQLVSMFAQAGMNDVSA [chain 1 M16L M20L M37L M44L M73L]
4 | 160 | SHTTPWTNPGLAENFLNSFLQGLSSMPGFTASQLDDMSTIAQSMVQSIQSLAAQGRTSPNKLQALNMAFASSMAEIAASEEGGGSLSTKTSSIASAMSNAFLQTTGVVNQPFINEITQLVSMFAQAGMNDVSA [chain 1 M16L M20L]
